Laboratory results reported in IntAct's records for PubMed 10531343.

B1: Synaptotagmin-3 (Mus musculus), O35681 (parent)
chain: MSGDYEDDLCRRALILVSDLCARVRDADTNDRCQEFNELRIRGYPRGPDADISVSLLSVIVTFCGIVLLGVSLFVSWKLCWVPWRDKGGSAVGGGPLRKDLAPGVGLAGLVGGGGHHLGASLGGHPLLGGPHHHGHTAHHPPFAELLEPGGLGGSEPPEPSYLDMDSYPEAAVASVVAAGVKPSQTSPELPSEGGTGSGLLLLPPSGGGLPSAQSHQQVTSLAPTTRYPALPRPLTQQTLTTQADPSTEERPPALPLPLPGGEEKAKLIGQIKPELYQGTGPGGRRGGGSGEAGAPCGRISFALRYLYGSDHLVVRILQALDLPAKDSNGFSDPYVKIYLLPDRKKKFQTKVHRKTLNPIFNETFQFSVPLAELAQRKLHFSVYDFDRFSRHDLIGQVVLDNLLELAEQPPDRPLWRDILEGGSEKADLGELNFSLCYLPTAGRLTVTIIKASNLKAMDLTGFSDPYVKASLISEGRRLKKRKTSIKKNTLNPTYNEALVFDVAPESVENVGLSIAVVDYDCIGHNEVIGVCRVGPEAADPHGREHWAEMLANPRKPVEHWHQLVEEKTLSSFTKGGKGLSEKENSE
partner: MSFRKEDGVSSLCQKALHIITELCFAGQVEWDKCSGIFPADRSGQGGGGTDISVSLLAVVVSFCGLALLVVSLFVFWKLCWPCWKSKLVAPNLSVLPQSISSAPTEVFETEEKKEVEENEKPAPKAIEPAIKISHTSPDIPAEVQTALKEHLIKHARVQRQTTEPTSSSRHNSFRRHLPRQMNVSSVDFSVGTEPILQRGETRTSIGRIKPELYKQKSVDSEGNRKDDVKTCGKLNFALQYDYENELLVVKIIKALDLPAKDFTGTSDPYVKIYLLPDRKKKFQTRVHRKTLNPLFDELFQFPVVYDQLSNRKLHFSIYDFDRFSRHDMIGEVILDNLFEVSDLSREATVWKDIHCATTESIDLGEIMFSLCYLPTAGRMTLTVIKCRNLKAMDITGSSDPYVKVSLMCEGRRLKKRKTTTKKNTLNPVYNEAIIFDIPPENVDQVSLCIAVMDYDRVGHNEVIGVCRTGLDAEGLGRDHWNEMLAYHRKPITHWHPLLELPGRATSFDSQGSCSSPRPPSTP
B2: Synaptotagmin-9 (Mus musculus), Q9R0N9 (parent)
chain: MPGARDALCHQALQLLAELCARGALEHDSCQDFIYHLRDRARPRLRDPDISVSLLTLVVTACGLALFGVSLFVSWKLCWVPWRERGLFSGSKDNNQEPLNYTDTETNEQENSEDFLDPPTPCPDSSMKISHTSPDIPLSTQPGGQENCAHAVRVQRQVTEPTPSARHNSIRRQLNLSNPDFNIQQLQRQEQLTGIGRIKPELYKQRSLDNDDGRRSNSKACGKLNFILKYDCDLEQLIVKIHKAVNLPAKDFSGTSDPYVKIYLLPDRKTKHQTKVHRKTLNPVFDEVFLFPVHYNDLEARKLHFSVYDFDRFSRHDLIGQVVVDHFFDLADFPRECILWKDIEYVTNDNVDLGELMFSLCYLPTAGRLTITIIKARNLKAMDITGASDPYVKVSLMCDGRRLKKRKTSTKRNTLNPVYNEAIVFDVPPESIDQIHLSIAVMDYDRVGHNEVIGVCQVGNEAERLGRDHWSEMLSYPRKPIAHWHSLMEKR
partner: B1 partner
B3: Synaptotagmin-10 (Mus musculus), Q9R0N4 (parent)
chain: B1 partner
partner: B2 chain
B4: Synaptotagmin-10 (Mus musculus), Q9R0N4 (parent)
chain: B1 partner
partner: B1 chain
B5: Synaptotagmin-9 (Mus musculus), Q9R0N9 (parent)
chain: B2 chain
partner: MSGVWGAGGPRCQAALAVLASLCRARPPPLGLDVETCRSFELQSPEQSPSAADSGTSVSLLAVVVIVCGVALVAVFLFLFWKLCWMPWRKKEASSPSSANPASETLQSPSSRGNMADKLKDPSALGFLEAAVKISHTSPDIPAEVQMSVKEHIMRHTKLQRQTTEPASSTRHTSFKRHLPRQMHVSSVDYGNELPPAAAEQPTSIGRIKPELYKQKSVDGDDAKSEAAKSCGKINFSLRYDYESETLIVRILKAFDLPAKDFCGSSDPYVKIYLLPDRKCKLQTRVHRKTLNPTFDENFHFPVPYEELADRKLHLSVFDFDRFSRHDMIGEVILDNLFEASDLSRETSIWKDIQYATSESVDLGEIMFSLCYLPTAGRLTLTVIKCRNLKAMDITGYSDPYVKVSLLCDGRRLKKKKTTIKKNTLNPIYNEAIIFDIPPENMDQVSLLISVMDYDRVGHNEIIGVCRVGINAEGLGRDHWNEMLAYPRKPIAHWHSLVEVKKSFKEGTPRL
B6: Synaptotagmin-6 (Mus musculus), Q9R0N8 (parent)
chain: B5 partner
partner: B1 partner

Variants of: B1
Details: with syt10_mouse Syt10, Q9R0N4

| Variant | effect of a mutation on the interaction |
| --- | --- |
| MSGDYEDDLARRALILVSDLCARVRDADTNDRCQEFNELRIRGYPRGPDADISVSLLSVIVTFCGIVLLGVSLFVSWKLCWVPWRDKGGSAVGGGPLRKDLAPGVGLAGLVGGGGHHLGASLGGHPLLGGPHHHGHTAHHPPFAELLEPGGLGGSEPPEPSYLDMDSYPEAAVASVVAAGVKPSQTSPELPSEGGTGSGLLLLPPSGGGLPSAQSHQQVTSLAPTTRYPALPRPLTQQTLTTQADPSTEERPPALPLPLPGGEEKAKLIGQIKPELYQGTGPGGRRGGGSGEAGAPCGRISFALRYLYGSDHLVVRILQALDLPAKDSNGFSDPYVKIYLLPDRKKKFQTKVHRKTLNPIFNETFQFSVPLAELAQRKLHFSVYDFDRFSRHDLIGQVVLDNLLELAEQPPDRPLWRDILEGGSEKADLGELNFSLCYLPTAGRLTVTIIKASNLKAMDLTGFSDPYVKASLISEGRRLKKRKTSIKKNTLNPTYNEALVFDVAPESVENVGLSIAVVDYDCIGHNEVIGVCRVGPEAADPHGREHWAEMLANPRKPVEHWHQLVEEKTLSSFTKGGKGLSEKENSE [C10A] | decreasing interaction |

Variants of: B2
Details: with syt10_mouse Syt10, Q9R0N4

| Variant | effect of a mutation on the interaction |
| --- | --- |
| MPGARDALAHQALQLLAELCARGALEHDSCQDFIYHLRDRARPRLRDPDISVSLLTLVVTACGLALFGVSLFVSWKLCWVPWRERGLFSGSKDNNQEPLNYTDTETNEQENSEDFLDPPTPCPDSSMKISHTSPDIPLSTQPGGQENCAHAVRVQRQVTEPTPSARHNSIRRQLNLSNPDFNIQQLQRQEQLTGIGRIKPELYKQRSLDNDDGRRSNSKACGKLNFILKYDCDLEQLIVKIHKAVNLPAKDFSGTSDPYVKIYLLPDRKTKHQTKVHRKTLNPVFDEVFLFPVHYNDLEARKLHFSVYDFDRFSRHDLIGQVVVDHFFDLADFPRECILWKDIEYVTNDNVDLGELMFSLCYLPTAGRLTITIIKARNLKAMDITGASDPYVKVSLMCDGRRLKKRKTSTKRNTLNPVYNEAIVFDVPPESIDQIHLSIAVMDYDRVGHNEVIGVCQVGNEAERLGRDHWSEMLSYPRKPIAHWHSLMEKR [C9A] | decreasing interaction |

Variants of: B3
Details: with syt9_mouse Syt9, Q9R0N9

| Variant | effect of a mutation on the interaction |
| --- | --- |
| MSFRKEDGVSSLAQKALHIITELCFAGQVEWDKCSGIFPADRSGQGGGGTDISVSLLAVVVSFCGLALLVVSLFVFWKLCWPCWKSKLVAPNLSVLPQSISSAPTEVFETEEKKEVEENEKPAPKAIEPAIKISHTSPDIPAEVQTALKEHLIKHARVQRQTTEPTSSSRHNSFRRHLPRQMNVSSVDFSVGTEPILQRGETRTSIGRIKPELYKQKSVDSEGNRKDDVKTCGKLNFALQYDYENELLVVKIIKALDLPAKDFTGTSDPYVKIYLLPDRKKKFQTRVHRKTLNPLFDELFQFPVVYDQLSNRKLHFSIYDFDRFSRHDMIGEVILDNLFEVSDLSREATVWKDIHCATTESIDLGEIMFSLCYLPTAGRMTLTVIKCRNLKAMDITGSSDPYVKVSLMCEGRRLKKRKTTTKKNTLNPVYNEAIIFDIPPENVDQVSLCIAVMDYDRVGHNEVIGVCRTGLDAEGLGRDHWNEMLAYHRKPITHWHPLLELPGRATSFDSQGSCSSPRPPSTP [C13A] | decreasing interaction |

Variants of: B4
Details: with syt3_mouse Syt3, O35681

| Variant | effect of a mutation on the interaction |
| --- | --- |
| MSFRKEDGVSSLAQKALHIITELCFAGQVEWDKCSGIFPADRSGQGGGGTDISVSLLAVVVSFCGLALLVVSLFVFWKLCWPCWKSKLVAPNLSVLPQSISSAPTEVFETEEKKEVEENEKPAPKAIEPAIKISHTSPDIPAEVQTALKEHLIKHARVQRQTTEPTSSSRHNSFRRHLPRQMNVSSVDFSVGTEPILQRGETRTSIGRIKPELYKQKSVDSEGNRKDDVKTCGKLNFALQYDYENELLVVKIIKALDLPAKDFTGTSDPYVKIYLLPDRKKKFQTRVHRKTLNPLFDELFQFPVVYDQLSNRKLHFSIYDFDRFSRHDMIGEVILDNLFEVSDLSREATVWKDIHCATTESIDLGEIMFSLCYLPTAGRMTLTVIKCRNLKAMDITGSSDPYVKVSLMCEGRRLKKRKTTTKKNTLNPVYNEAIIFDIPPENVDQVSLCIAVMDYDRVGHNEVIGVCRTGLDAEGLGRDHWNEMLAYHRKPITHWHPLLELPGRATSFDSQGSCSSPRPPSTP [C13A] | decreasing interaction |

Variants of: B5
Details: with syt6_mouse Syt6, Q9R0N8

| Variant | effect of a mutation on the interaction |
| --- | --- |
| MPGARDALAHQALQLLAELCARGALEHDSCQDFIYHLRDRARPRLRDPDISVSLLTLVVTACGLALFGVSLFVSWKLCWVPWRERGLFSGSKDNNQEPLNYTDTETNEQENSEDFLDPPTPCPDSSMKISHTSPDIPLSTQPGGQENCAHAVRVQRQVTEPTPSARHNSIRRQLNLSNPDFNIQQLQRQEQLTGIGRIKPELYKQRSLDNDDGRRSNSKACGKLNFILKYDCDLEQLIVKIHKAVNLPAKDFSGTSDPYVKIYLLPDRKTKHQTKVHRKTLNPVFDEVFLFPVHYNDLEARKLHFSVYDFDRFSRHDLIGQVVVDHFFDLADFPRECILWKDIEYVTNDNVDLGELMFSLCYLPTAGRLTITIIKARNLKAMDITGASDPYVKVSLMCDGRRLKKRKTSTKRNTLNPVYNEAIVFDVPPESIDQIHLSIAVMDYDRVGHNEVIGVCQVGNEAERLGRDHWSEMLSYPRKPIAHWHSLMEKR [C9A] | decreasing interaction |

Variants of: B6
Details: with syt10_mouse Syt10, Q9R0N4

| Variant | effect of a mutation on the interaction |
| --- | --- |
| MSGVWGAGGPRAQAALAVLASLCRARPPPLGLDVETCRSFELQSPEQSPSAADSGTSVSLLAVVVIVCGVALVAVFLFLFWKLCWMPWRKKEASSPSSANPASETLQSPSSRGNMADKLKDPSALGFLEAAVKISHTSPDIPAEVQMSVKEHIMRHTKLQRQTTEPASSTRHTSFKRHLPRQMHVSSVDYGNELPPAAAEQPTSIGRIKPELYKQKSVDGDDAKSEAAKSCGKINFSLRYDYESETLIVRILKAFDLPAKDFCGSSDPYVKIYLLPDRKCKLQTRVHRKTLNPTFDENFHFPVPYEELADRKLHLSVFDFDRFSRHDMIGEVILDNLFEASDLSRETSIWKDIQYATSESVDLGEIMFSLCYLPTAGRLTLTVIKCRNLKAMDITGYSDPYVKVSLLCDGRRLKKKKTTIKKNTLNPIYNEAIIFDIPPENMDQVSLLISVMDYDRVGHNEIIGVCRVGINAEGLGRDHWNEMLAYPRKPIAHWHSLVEVKKSFKEGTPRL [C12A] | decreasing interaction |
